Test: yeast display, Sf9 membrane polyspecificity reagent, FACS + sequencing; frameworks hold sequencing errors
How it was run: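 Polyreactivity labels are assigned by the sorting gate from which each nanobody was recovered. The gates were low and high (top ~1%), set on anti-HA fluorescence for expression and streptavidin fluorescence for reagent binding. Before sorting, galactose-induced (36–48 hours) yeast display cells were stained for 1 hour at 4 °C with 10% biotinylated, detergent-solubilized Sf9 membrane reagent.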

Row | Sequence | polyreactivity (PSR sort gate)
1 | QVQLVESGGGLVQAGGSLRLSCAASGRTFRLYAMGWYRQAPGKVRELGAAITRGGRTNYADSVKGRFTISRDNAKNTVYLQMNSLKPEDTALYYCAARYVERHTDYYYWGQGTQVTVSS | low polyreactivity
2 | QVQLVESGGGLVQAGGSLRLSCAASGRTFRNNAMGWYRQAPGKEREFVAVISNTGGSTYYADSVKGRFTISRDNAKNTVYLQMYSLKPEDTAVYYCAVRPRYSQYYYWGQGTQVTVSS | high polyreactivity
3 | QVQLVESGGGLVQAGGSLRLSCAASGRTFRNYAMGWYRPAPGKERELVAAITWSGGSTYYADSVKGRFTISRDNAKNTVYLQMNSLKPEDTAVYYCNVRSYTRTYNYWGQGTQVTVSS | high polyreactivity
4 | QVQLVESGGGLVQAGGSLRLSCAASGRTFRPNVMGWYRQAPGKERELVAAISNGGRTYYADSVKGRFTISRDNAKNTVFLQMNCLKAEYTAVYYCNKVRSPWYDYWVQGTQVTVSS | high polyreactivity
5 | QVQLVESGGGLVQAGGSLRLSCAASGRTFRPYAMGWYRPAPGKERELVAAISYRGGITNYADSVKGRFTISRDNAKNTVYLKMNSLKPEDTAVYYCNRYAIWVSRYSDLDYWGQGTEVTVSS | low polyreactivity
6 | QVQLVESGGGLVQAGGSLRLSCAASGRTFRPYAMGWYRQAPGKERELVAAISSGGSTYYADSVKGRFTISRDNAKNTVYLQMNSLKPEDTAVYYCNAVGLWARDYGYWGQGTQVTVSS | high polyreactivity
7 | QVQLVESGGGLVQAGGSLRLSCAASGRTFRRNAMGWYRQAPGKERELVAAISGGGSTNYADSVKGRFTISRDNAKNTVYLQMNSLKPEDTAVYYCNKRGTIWSGYWGQGTQVTVSS | high polyreactivity
8 | QVQLVESGGGLVQAGGSLRLSCAASGRTFRRNAMGWYRQAPGKERELVASITRNGGSTYYADSVKGRFTISRDNAKNTVYLQMNILKPEDTAVYYCYKTQPIDLYGYWGQGTQVTVSS | high polyreactivity
9 | QVQLVESGGGLVQAGGSLRLSCAASGRTFRRNAMGWYRQAPGKERELVATISSSGGRTYYADSVKGRFTISRDNAKKTVYFQMNSLKPEDTAVYYCNKALRTYPLFYYWGQGTQVTVSS | high polyreactivity
10 | QVQLVESGGGLVQAGGSLRLSCAASGRTFRRNVMGWYRQAPGKERELVAAISSGANTNYADSVKGRFTISRDNAKNTVYLQMNSLKPEDTAVYYCNARWQEPLKYDYWGQGTQVTVSS | low polyreactivity
11 | QVQLVESGGGLVQAGGSLRLSCAASGRTFRRYAMGWYRQAPGKERELVAAISWGAGSTRYADSVKGRFTISRDNAKNTVYLQMNSLKPEDTAVYYCAAENTRAYGMYYWGQGTQVTVSS | high polyreactivity
12 | QVQLVESGGGLVQAGGSLRLSCAASGRTFRRYAMGWYRQAPGKERELVAAISYSGTTTYYADSVKGRFTISRDNAKNTVYLQMNSLKPEDTAVYYCNKATAFGLDYWGQGTQVTVSS | high polyreactivity
13 | QVQLVESGGGLVQAGGSLRLSCAASGRTFRRYAMGWYRQAPGKERELVATIRSGDNTNYADSVKGRFTISRDNAKNTVYLQMNSLKPEDTAVYYCNRSPKSGQVTYLYSVNAHYDYWGQGTQVTVSS | low polyreactivity
14 | QVQLVESGGGLVQAGGSLRLSCAASGRTFRRYFMGWYRQAPGKERELVAAISGGGGSTYYAGSVKGRFTISRDNAKNTVYLQMNSLKPEDTAVYYCAARIGWYQYWGYPTSYGYWGQGTQVTVSS | high polyreactivity
15 | QVQLVESGGGLVQAGGSLRLSCAASGRTFRRYTMGWYRPAPGKERELVAAITTSGGSTYYADSVKGRFTLSRDNAKNTVYLQMNSLKPEDTAVYYCAATRRYSGDYWGQGTQVTVSS | high polyreactivity
16 | QVQLVESGGGLVQAGGSLRLSCAASGRTFRSNAMGWDRQAPGKEREFVAAISSGGSTKYADSVKGRFTISRDNAKNTVYLQMNSLKPEDTAVYYCAAVSHSRYWGQGTQVTVSS | high polyreactivity
17 | QVQLVESGGGLVQAGGSLRLSCAASGRTFRSNAMGWYRQAPGKERELVAAISKRGASTYYADSVKGRFTISRDNAKNTVYLQMNSLKPEVTAVYYCNTGAAKHAYDYWGQGTQVTVSS | high polyreactivity
18 | QVQLVESGGGLVQAGGSLRLSCAASGRTFRSNAMGWYRQAPGKERELVAAISNSGASTYYADSVKGRFTISRDNAKNTFYLQMNSLKPEDTAVYYCAADYYRPYRYDYWGQGTQVTVSS | high polyreactivity
